This data set relates to HEK293T. Kind of data set: plasma membrane surface immunostaining intensity (anti-HA, deep receptor scanning) (arbitrary fluorescence units); higher = higher plasma membrane expression.

± gives the uncertainty stated by the source.

For the sequence “MDSGPLWDANPTPRGTLSAPNATTPWLGRDEELAKVEIGVLATVLVLATGGNLAVLLTLGQLGRKRSRMHLFVLHLALTDLAVALFQVLPQLLWDITYRFQGPDLLCRAVKYLQVLSMFASTYMLLAMTLDRYLAVCHPLRSLQQPGQSTYLLIAAPWLLAAIFSLPQVFIFSLREVIQGSGVLDCWADFGFPWGPRAYLTWTTLAIFVLPVTMLTACYSLICHEICKNLKVKTQAWRVGGGGWRTWDRPSPSTLAATTRGLPSRVSSINTISRAKIRTVKMTFVIVLAYIACWAPFFSVQMWSVWDKNAPDEDSTNVAFTISMLLGNLNSCCNPWIYMGFNSHLLPRPLRHLACCGGPQPRMRRRLSDGSLSSRHTTLLTRSSCPATLSLSLSLTLSGRPRPEESPRDLELADGEGTAETIIF [AVPR1B]”, where the note is “GPCR class: A”, the “plasma membrane surface immunostaining intensity” value worked out at 665 ± 110.

Turning to “MNPDLDTGHNTSAPAHWGELKNANFTGPNQTSSNSTLPQLDITRAISVGLVLGAFILFAIVGNILVILSVACNRHLRTPTNYFIVNLAMADLLLSFTVLPFSAALEVLGYWVLGRIFCDIWAAVDVLCCTASILSLCAISIDRYIGVRYSLQYPTLVTRRKAILALLSVWVLSTVISIGPLLGWKEPAPNDDKECGVTEEPFYALFSSLGSFYIPLAVILVMYCRVYIVAKRTTKNLEAGVMKEMSNSKELTLRIHSKNFHEDTLSSTKAKGHNPRSSIAVKLFKFSREKKAAKTLGIVVGMFILCWLPFFIALPLGSLFSTLKPPDAVFKVVFWLGYFNSCLNPIIYPCSSKEFKRAFVRILGCQCRGRGRRRRRRRRRLGGCAYTYRPWTRGGSLERSQSRKDSLDDSGSCLSGSQRTLPSASPSPGYLGRGAPPPVELCAFPEWKAPGALLSLPAPEPPGRRGRHDSGPLFTFKLLTEPESPGTDGGASNGGCEAAADVANGQPGFKSNMPLAPGQF [ADRA1B]”, the “plasma membrane surface immunostaining intensity” value (GPCR class: A) was found to be 6200 ± 240. On to “MSGENVTRVGTFILVGFPTAPGLQYLLFLLFLLTYLFVLVENLAIILTVWSSTSLHRPMYYFLSSMSFLEIWYVSDITPKMLEGFLLQQKRISFVGCMTQLYFFSSLVCTECVLLASMAYDRYVAICHPLRYHVLVTPGLCLQLVGFSFVSGFTISMIKVCFISSVTFCGSNVLNHFFCDISPILKLACTDFSTAELVDFILAFIILVFPLLATMLSYAHITLAVLRIPSATGCWRAFFTCASHLTVVTVFYTALLFMYVRPQAIDSRSSNKLISVLYTVITPILNPLIYCLRNKEFKNALKKAFGLTSCAVEGRLSSLLELHLQIHSQPL [OR6B3]”, for which the “plasma membrane surface immunostaining intensity” value (GPCR class: A (Olfactory)) came to 115 ± 11. Consider “MRAVFIQGAEEHPAAFCYQVNGSCPRTVHTLGIQLVIYLACAAGMLIIVLGNVFVAFAVSYFKALHTPTNFLLLSLALADMFLGLLVLPLSTIRSVESCWFFGDFLCRLHTYLDTLFCLTSIFHLCFISIDRHCAICDPLLYPSKFTVRVALRYILAGWGVPAAYTSLFLYTDVVETRLSQWLEEMPCVGSCQLLLNKFWGWLNFPLFFVPCLIMISLYVKIFVVATRQAQQITTLSKSLAGAAKHERKAAKTLGIAVGIYLLCWLPFTIDTMVDSLLHFITPPLVFDIFIWFAYFNSACNPIIYVFSYQWFRKALKLTLSQKVFSPQTRTVDLYQE [TAAR5]”, for which, under “GPCR class: A”, the “plasma membrane surface immunostaining intensity” value was 381 ± 140. Turning to “MLMKKNASFEDFFLLLGFSNWPHLEVVLFVVILIFYLITLIGNLFIIILSYLDSHLHTPMYFFLSNLSFLDLCYTTSSIPQLLVNLWGPEKTISYAGCTVQLYFVLALGTAECVLLVVMSYDRYAAVCRPLHYTVLMHPRFCRLLAAASWVSGFTTSALHSSFTFWIPLCRHRLVDHFFCEVPALLRLSCVDTQANELTLMVMSSIFVLIPLILILTSYGAIARAVLSMQSTTGLQKVLRTCGAHLMVVSLFFIPVMCMYLQPPSENSQDQGKFIALFYTVVTPSLNPLIYTFRNKDVRGAVKRLMGWEWGM [OR2J1]”, the “plasma membrane surface immunostaining intensity” value (GPCR class: A (Olfactory)) was 133 ± 36.

With “MSGTNQSSVSEFLLLGLSRQPQQQHLLFVFFLSMYLATVLGNLLIILSVSIDSCLHTPMYFFLSNLSFVDICFSFTTVPKMLANHILETQTISFCGCLTQMYFVFMFVDMDNFLLAVMAYDHFVAVCHPLHYTAKMTHQLCALLVAGLWVVANLNVLLHTLLMAPLSFCADNAITHFFCDVTPLLKLSCSDTHLNEVIILSEGALVMITPFLCILASYMHITCTVLKVPSTKGRWKAFSTCGSHLAVVLLFYSTIIAVYFNPLSSHSAEKDTMATVLYTVVTPMLNPFIYSLRNRYLKGALKKVVGRVVFSV [OR1F1]”, the “plasma membrane surface immunostaining intensity” value (GPCR class: A (Olfactory)) turned out to be 278 ± 120. Take “MSITKAWNSSSVTMFILLGFTDHPELQALLFVTFLGIYLTTLAWNLALIFLIRGDTHLHTPMYFFLSNLSFIDICYSSAVAPNMLTDFFWEQKTISFVGCAAQFFFFVGMGLSECLLLTAMAYDRYAAISSPLLYPTIMTQGLCTRMVVGAYVGGFLSSLIQASSIFRLHFCGPNIINHFFCDLPPVLALSCSDTFLSQVVNFLVVVTVGGTSFLQLLISYGYIVSAVLKIPSAEGRWKACNTCASHLMVVTLLFGTALFVYLRPSSSYLLGRDKVVSVFYSLVIPMLNPLIYSLRNKEIKDALWKVLERKKVFS [OR5A1]”: for the setting “GPCR class: A (Olfactory)”, the “plasma membrane surface immunostaining intensity” value is 122 ± 20. In the case of “MGRWVNQSYTDGFFLLGIFSHSQTDLVLFSAVMVVFTVALCGNVLLIFLIYLDAGLHTPMYFFLSQLSLMDLMLVCNIVPKMAANFLSGRKSISFVGCGIQIGFFVSLVGSEGLLLGLMAYDRYVAVSHPLHYPILMNQRVCLQITGSSWAFGIIDGVIQMVAAMGLPYCGSRSVDHFFCEVQALLKLACADTSLFDTLLFACCVFMLLLPFSIIMASYACILGAVLRIRSAQAWKKALATCSSHLTAVTLFYGAAMFMYLRPRRYRAPSHDKVASIFYTVLTPMLNPLIYSLRNGEVMGALRKGLDRCRIGSQH [OR2V1]”, for the setting “GPCR class: A (Olfactory)”, the “plasma membrane surface immunostaining intensity” value worked out at 153 ± 28. Same read-out and setting: the result for “MWQKNQTSLADFILEGLFDDSLTHLFLFSLTMVVFLIAVSGNTLTILLICIDPQLHTPMYFLLSQLSLMDLMHVSTIILKMATNYLSGKKSISFVGCATQHFLYLCLGGAECFLLAVMSYDRYVAICHPLRYAVLMNKKVGLMMAVMSWLGASVNSLIHMAILMHFPFCGPRKVYHFYCEFPAVVKLVCGDITVYETTVYISSILLLLPIFLISTSYVFILQSVIQMRSSGSKRNAFATCGSHLTVVSLWFGACIFSYMRPRSQCTLLQNKVGSVFYSIITPTLNSLIYTLRNKDVAKALRRVLRRDVITQCIQRLQLWLPRV [OR2AE1]” reads 159 ± 49. Turning to “MKMLTRLQVLTLALFSKGFLLSLGDHNFLRREIKIEGDLVLGGLFPINEKGTGTEECGRINEDRGIQRLEAMLFAIDEINKDDYLLPGVKLGVHILDTCSRDTYALEQSLEFVRASLTKVDEAEYMCPDGSYAIQENIPLLIAGVIGGSYSSVSIQVANLLRLFQIPQISYASTSAKLSDKSRYDYFARTVPPDFYQAKAMAEILRFFNWTYVSTVASEGDYGETGIEAFEQEARLRNICIATAEKVGRSNIRKSYDSVIRELLQKPNARVVVLFMRSDDSRELIAAASRANASFTWVASDGWGAQESIIKGSEHVAYGAITLELASQPVRQFDRYFQSLNPYNNHRNPWFRDFWEQKFQCSLQNKRNHRRVCDKHLAIDSSNYEQESKIMFVVNAVYAMAHALHKMQRTLCPNTTKLCDAMKILDGKKLYKDYLLKINFTAPFNPNKDADSIVKFDTFGDGMGRYNVFNFQNVGGKYSYLKVGHWAETLSLDVNSIHWSRNSVPTSQCSDPCAPNEMKNMQPGDVCCWICIPCEPYEYLADEFTCMDCGSGQWPTADLTGCYDLPEDYIRWEDAWAIGPVTIACLGFMCTCMVVTVFIKHNNTPLVKASGRELCYILLFGVGLSYCMTFFFIAKPSPVICALRRLGLGSSFAICYSALLTKTNCIARIFDGVKNGAQRPKFISPSSQVFICLGLILVQIVMVSVWLILEAPGTRRYTLAEKRETVILKCNVKDSSMLISLTYDVILVILCTVYAFKTRKCPENFNEAKFIGFTMYTTCIIWLAFLPIFYVTSSDYRVQTTTMCISVSLSGFVVLGCLFAPKVHIILFQPQKNVVTHRLHLNRFSVSGTGTTYSQSSASTYVPTVCNGREVLDSTTSSL [GRM3]”, the “plasma membrane surface immunostaining intensity” value (GPCR class: C) amounted to 6390 ± 16. As for “MVPHLLLLCLLPLVRATEPHEGRADEQSAEAALAVPNASHFFSWNNYTFSDWQNFVGRRRYGAESQNPTVKALLIVAYSFIIVFSLFGNVLVCHVIFKNQRMHSATSLFIVNLAVADIMITLLNTPFTLVRFVNSTWIFGKGMCHVSRFAQYCSLHVSALTLTAIAVDRHQVIMHPLKPRISITKGVIYIAVIWTMATFFSLPHAICQKLFTFKYSEDIVRSLCLPDFPEPADLFWKYLDLATFILLYILPLLIISVAYARVAKKLWLCNMIGDVTTEQYFALRRKKKKTIKMLMLVVVLFALCWFPLNCYVLLLSSKVIRTNNALYFAFHWFAMSSTCYNPFIYCWLNENFRIELKALLSMCQRPPKPQEDRPPSPVPSFRVAWTEKNDGQRAPLANNLLPTSQLQSGKTDLSSVEPIVTMS [GPR83]”, where the note is “GPCR class: A”, the “plasma membrane surface immunostaining intensity” value is 490 ± 39. Turning to “MEAANESSEGISFVLLGLTTSPGQQRPLFVLFLLLYVASLLGNGLIVAAIQASPALHAPMYFLLAHLSFADLCFASVTVPKMLANLLAHDHSISLAGCLTQMYFFFALGVTDSCLLAAMAYDCYVAIRHPLPYATRMSRAMCAALVGMAWLVSHVHSLLYILLMARLSFCASHQVPHFFCDHQPLLRLSCSDTHHIQLLIFTEGAAVVVTPFLLILASYGAIAAAVLQLPSASGRLRAVSTCGSHLAVVSLFYGTVIAVYFQATSRREAEWGRVATVMYTVVTPMLNPIIYSLWNRDVQGALRALLIGRRISASDS [OR1K1]”, the “plasma membrane surface immunostaining intensity” value (GPCR class: A (Olfactory)) came out at 223 ± 69. Turning to “MFGLFGLWRTFDSVVFYLTLIVGLGGPVGNGLVLWNLGFRIKKGPFSIYLLHLAAADFLFLSCRVGFSVAQAALGAQDTLYFVLTFLWFAVGLWLLAAFSVERCLSDLFPACYQGCRPRHASAVLCALVWTPTLPAVPLPANACGLLRNSACPLVCPRYHVASVTWFLVLARVAWTAGVVLFVWVTCCSTRPRPRLYGIVLGALLLLFFCGLPSVFYWSLQPLLNFLLPVFSPLATLLACVNSSSKPLIYSGLGRQPGKREPLRSVLRRALGEGAELGARGQSLPMGLL [MRGPRG]”, the “plasma membrane surface immunostaining intensity” value (GPCR class: A) came to 115 ± 15. In the case of “MSNASLLTAFILMGLPHAPALDAPLFGVFLVVYVLTVLGNLLILLVIRVDSHLHTTMYYFLTNLSFIDMWFSTVTVPKLLMTLVFPSGRAISFHSCMAQLYFFHFLGGTECFLYRVMSCDRYLAISYPLRYTSMMTGRSCTLLATSTWLSGSLHSAVQAILTFHLPYCGPNWIQHYLCDAPPILKLACADTSAIETVIFVTVGIVASGCFVLIVLSYVSIVCSILRIRTSEGKHRAFQTCASHCIVVLCFFGPGLFIYLRPGSRKAVDGVVAVFYTVLTPLLNPVVYTLRNKEVKKALLKLKDKVAHSQSK [OR10G8]”, the “plasma membrane surface immunostaining intensity” value (GPCR class: A (Olfactory)) was 114 ± 4.5. With “MPKLNSTFVTEFLFEGFSSFRRQHKLVFFVVFLTLYLLTLSGNVIIMTIIRLDHHLHTPMYFFLCMLSISETCYTVAIIPHMLSGLLNPHQPIATQSCATQLFFYLTFGINNCFLLTVMGYDRYVAICNPLRYSVIMGKRACIQLASGSLGIGLGMAIVQVTSVFGLPFCDAFVISHFFCDVRHLLKLACTDTTVNEIINFVVSVCVLVLPMGLVFISYVLIISTILKIASAEGQKKAFATCASHLTVVIIHYGCASIIYLKPKSQSSLGQDRLISVTYTHHSPTEPCCVQPEEQGGQRCSAQSRGAKNSVSLMKRGCEGFSFAFINMY [OR10J3]”, for the setting “GPCR class: A (Olfactory)”, the “plasma membrane surface immunostaining intensity” value was 164 ± 60.

For the sequence “MKAGNFSDTPEFFLLGLSGDPELQPILFMLFLSMYLATMLGNLLIILAVNSDSHLHTPMYFLLSILSLVDICFTSTTMPKMLVNIQAQAQSINYTGCLTQICFVLVFVGLENGILVMMAYDRFVAICHPLRYNVIMNPKLCGLLLLLSFIVSVLDALLHTLMVLQLTFCIDLEIPHFFCELAHILKLACSDVLINNILVYLVTSLLGVVPLSGIIFSYTRIVSSVMKIPSAGGKYKAFSICGSHLIVVSLFYGTGFGVYLSSGATHSSRKGAIASVMYTVVTPMLNPLIYSLRNKDMLKALRKLISRIPSFH [OR7G3]”, the “plasma membrane surface immunostaining intensity” value (GPCR class: A (Olfactory)) was determined as 111 ± 21.

The values are drawn from the supplement of paper PMC12458215.
